Measured values as given in article PMC11327110 (2024).

Tests used:
[1] = target: T1, proteasome subunit α3 (PSMA4) (Homo sapiens (Human), UniProt P25789); assay: cryo-EM structure of co-purified complex; contact seen only within structure 1 (complete α-ring, PAC1/PAC2, POMP, β2); pair not tested in isolation
T1 chain: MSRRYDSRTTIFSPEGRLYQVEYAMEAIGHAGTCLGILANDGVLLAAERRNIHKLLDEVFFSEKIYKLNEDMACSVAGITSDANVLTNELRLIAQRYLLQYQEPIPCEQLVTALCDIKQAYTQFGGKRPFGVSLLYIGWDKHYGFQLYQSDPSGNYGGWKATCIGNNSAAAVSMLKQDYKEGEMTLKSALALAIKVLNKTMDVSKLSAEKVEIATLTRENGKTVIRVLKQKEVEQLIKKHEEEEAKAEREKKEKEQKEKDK

[2] = target: T2, proteasome subunit α2 (PSMA2) (Homo sapiens (Human), UniProt P25787); assay: cryo-EM structure of co-purified complex; contact seen only within the assembled multi-subunit intermediate (complete α-ring, POMP, β2); pair not tested in isolation
T2 chain: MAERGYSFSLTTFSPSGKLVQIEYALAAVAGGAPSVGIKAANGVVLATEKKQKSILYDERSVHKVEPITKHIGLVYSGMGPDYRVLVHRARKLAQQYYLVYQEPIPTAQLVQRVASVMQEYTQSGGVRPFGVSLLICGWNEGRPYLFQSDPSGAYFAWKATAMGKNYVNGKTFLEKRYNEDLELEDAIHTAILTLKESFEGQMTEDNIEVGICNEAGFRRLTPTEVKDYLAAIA

[3] = target: T3, proteasome subunit α4 (PSMA7) (Homo sapiens (Human), UniProt O14818); assay: as above
T3 chain: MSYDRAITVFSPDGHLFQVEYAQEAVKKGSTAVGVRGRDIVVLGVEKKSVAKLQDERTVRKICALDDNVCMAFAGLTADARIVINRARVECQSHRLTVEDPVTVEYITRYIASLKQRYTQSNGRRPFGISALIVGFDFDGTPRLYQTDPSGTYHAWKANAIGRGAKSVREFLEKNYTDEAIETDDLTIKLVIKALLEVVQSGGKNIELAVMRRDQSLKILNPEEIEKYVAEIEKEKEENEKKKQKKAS

[4] = target: T4, proteasome subunit α7 (PSMA3) (Homo sapiens (Human), UniProt P25788); assay: cryo-EM structure of co-purified complex; contact seen only within the assembled multi-subunit intermediate (PAC2 C-terminus in α6-α7 pocket); pair not tested in isolation
T4 chain: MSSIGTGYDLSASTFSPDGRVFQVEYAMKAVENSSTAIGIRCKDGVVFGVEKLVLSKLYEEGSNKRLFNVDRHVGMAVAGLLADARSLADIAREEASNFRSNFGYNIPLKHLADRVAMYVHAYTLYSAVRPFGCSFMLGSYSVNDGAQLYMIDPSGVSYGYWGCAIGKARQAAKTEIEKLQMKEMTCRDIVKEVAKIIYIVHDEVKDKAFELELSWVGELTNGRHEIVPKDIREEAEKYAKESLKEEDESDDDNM

[5] = target: T5, proteasome subunit α5 (PSMA5) (Homo sapiens (Human), UniProt P28066); assay: cryo-EM structure of co-purified complex; contact seen within the assembled multi-subunit intermediate (complete α-ring, POMP, β2); isolated pair only cited from earlier work
T5 chain: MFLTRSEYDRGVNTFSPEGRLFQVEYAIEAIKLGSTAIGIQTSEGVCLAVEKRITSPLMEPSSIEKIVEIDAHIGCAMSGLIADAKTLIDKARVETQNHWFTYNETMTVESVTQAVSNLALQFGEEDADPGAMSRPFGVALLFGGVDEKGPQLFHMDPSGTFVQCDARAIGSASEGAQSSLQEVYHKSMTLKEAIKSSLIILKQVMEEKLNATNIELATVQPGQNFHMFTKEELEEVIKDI

[6] = target: proteasome subunit α6 (PSMA1) (Homo sapiens (Human), UniProt P25786); assay: cryo-EM structure of co-purified complex; contact seen only within the assembled multi-subunit intermediate (HbYX motifs in α5-α6 and α6-α7 pockets); pair not tested in isolation
[7] = target: T1, proteasome subunit α3 (PSMA4); assay: cryo-EM structure of co-purified complex; contact seen within the assembled multi-subunit intermediate; isolated pair only cited from earlier yeast two-hybrid

proteasome subunit α6 (PSMA1), sequence (P25786 whole entry): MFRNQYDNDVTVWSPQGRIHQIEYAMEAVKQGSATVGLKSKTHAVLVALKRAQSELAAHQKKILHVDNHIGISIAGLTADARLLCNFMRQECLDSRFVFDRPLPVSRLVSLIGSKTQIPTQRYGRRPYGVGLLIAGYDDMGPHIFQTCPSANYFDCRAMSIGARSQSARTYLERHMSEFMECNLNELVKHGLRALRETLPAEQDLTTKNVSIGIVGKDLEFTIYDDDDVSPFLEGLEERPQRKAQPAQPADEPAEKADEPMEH

B1: PAC3–PAC4 heterodimer (protein)
chain 1: MEDTPLVISKQKTEVVCGVPTQVVCTAFSSHILVVVTQFGKMGTLVSLEPSSVASDVSKPVLTTKVLLGQDEPLIHVFAKNLVAFVSQEAGNRAVLLAVAVKDKSMEGLKALREVIRVCQVW
chain 2: MEGLVVAAGGDVSLHNFSARLWEQLVHFHVMRLTDSLFLWVGATPHLRNLAVAMCSRYDSIPVSTSLLGDTSDTTSTGLAQRLARKTNKQVFVSYNLQNTDSNFALLVENRIKEEMEAFPEKF
[1]
  binding result: binds

B2: PAC1–PAC2 heterodimer (protein)
chain 1: MAATFFGEVVKAPCRAGTEDEEEEEEGRRETPEDREVRLQLARKREVRLLRRQTKTSLEVSLLEKYPCSKFIIAIGNNAVAFLSSFVMNSGVWEEVGCAKLWNEWCRTTDTTHLSSTEAFCVFYHLKSNPSVFLCQCSCYVAEDQQYQWLEKVFGSCPRKNMQITILTCRHVTDYKTSESTGSLPSPFLRALKTQNFKDSACCPLLEQPNIVHDLPAAVLSYCQVWKIPAILYLCYTDVMKLDLITVEAFKPILSTRSLKGLVKNIPQSTEILKKLMTTNEIQSNIYT
chain 2: MFVPCGESAPDLAGFTLLMPAVSVGNVGQLAMDLIISTLNMSKIGYFYTDCLVPMVGNNPYATTEGNSTELSINAEVYSLPSRKLVALQLRSIFIKYKSKPFCEKLLSWVKSSGCARVIVLSSSHSYQRNDLQLRSTPFRYLLTPSMQKSVQNKIKSLNWEEMEKSRCIPEIDDSEFCIRIPGGGITKTLYDESCSKEIQMAVLLKFVSEGDNIPDALGLVEYLNEWLQILKPLSDDPTVSASRWKIPSSWRLLFGSGLPPALF
[2]
  binding result: binds
[3]
  binding result: binds
[4]
  binding result: binds
[5]
  binding result: binds
[6]
  binding result: binds

B3: proteasome maturation protein (POMP) (protein)
chain: MNARGLGSELKDSIPVTELSASGPFESHDLLRKGFSCVKNELLPSHPLELSEKNFQLNQDKMNFSTLRNIQGLFAPLKLQMEFKAVQQVQRLPFLSSSNLSLDVLRGNDETIGFEDILNDPSQSEVMGEPHLMVEYKLGLL
[7]
  binding result: binds
